Reference: article PMC10212944

B1: (dT)35 (ssDNA)
DNA: TTTTTTTTTTTTTTTTTTTTTTTTTTTTTTTTTTT
B2: (dT)97 (ssDNA)
DNA: TTTTTTTTTTTTTTTTTTTTTTTTTTTTTTTTTTTTTTTTTTTTTTTTTTTTTTTTTTTTTTTTTTTTTTTTTTTTTTTTTTTTTTTTTTTTTTTTT
B3: 5'-FAM-(dT)20 (ssDNA)
DNA: TTTTTTTTTTTTTTTTTTTT
B4: 5'-FAM-(dT)40 (ssDNA)
DNA: TTTTTTTTTTTTTTTTTTTTTTTTTTTTTTTTTTTTTTTT

Assays:
[1] = target: T1, RPA S384D (Homo sapiens, UniProt P27694;P15927;P35244 1-616;1-270;1-121, S384D); assay: size exclusion chromatography; major 1:1, minor 2:1 protein:DNA; Stopped flow: 30 mM HEPES pH 7.8, 100 mM KCl, 5 mM MgCl2, 6% glycerol, 1 mM b-ME, 25 C; anisotropy: 50 mM Tris-acetate pH 7.5, 50 mM KCl, 5 mM MgCl2, 1 mM DTT; details: protein: recombinant; copies: 1;1;1
[2] = target: T2, RPA (wild type) (Homo sapiens, UniProt P27694;P15927;P35244 1-616;1-270;1-121); assay: stopped-flow Trp fluorescence (koff/kon); kon 5.2e10 M-1 s-1, koff 39 s-1 as printed; Stopped flow: 30 mM HEPES pH 7.8, 100 mM KCl, 5 mM MgCl2, 6% glycerol, 1 mM b-ME, 25 C; anisotropy: 50 mM Tris-acetate pH 7.5, 50 mM KCl, 5 mM MgCl2, 1 mM DTT; details: protein: recombinant; copies: 1;1;1
[3] = target: T2, RPA (wild type); assay: competition (facilitated exchange, stopped-flow FRET); displaces Cy3/Cy5-RPA, kFE 1.8 s-1; Stopped flow: 30 mM HEPES pH 7.8, 100 mM KCl, 5 mM MgCl2, 6% glycerol, 1 mM b-ME, 25 C; anisotropy: 50 mM Tris-acetate pH 7.5, 50 mM KCl, 5 mM MgCl2, 1 mM DTT; details: protein: recombinant; copies: 1;1;1
[4] = target: T1, RPA S384D; assay: competition (facilitated exchange, stopped-flow FRET); displaces Cy3/Cy5-RPA, kFE 0.9 s-1; Stopped flow: 30 mM HEPES pH 7.8, 100 mM KCl, 5 mM MgCl2, 6% glycerol, 1 mM b-ME, 25 C; anisotropy: 50 mM Tris-acetate pH 7.5, 50 mM KCl, 5 mM MgCl2, 1 mM DTT; details: protein: recombinant; copies: 1;1;1
[5] = target: T1, RPA S384D; assay: fluorescence anisotropy; stoichiometric binding; same as WT; Stopped flow: 30 mM HEPES pH 7.8, 100 mM KCl, 5 mM MgCl2, 6% glycerol, 1 mM b-ME, 25 C; anisotropy: 50 mM Tris-acetate pH 7.5, 50 mM KCl, 5 mM MgCl2, 1 mM DTT; details: protein: recombinant; copies: 1;1;1; label: 5'-FAM
[6] = target: T2, RPA (wild type); assay: fluorescence anisotropy; stoichiometric binding; Stopped flow: 30 mM HEPES pH 7.8, 100 mM KCl, 5 mM MgCl2, 6% glycerol, 1 mM b-ME, 25 C; anisotropy: 50 mM Tris-acetate pH 7.5, 50 mM KCl, 5 mM MgCl2, 1 mM DTT; details: protein: recombinant; copies: 1;1;1; label: 5'-FAM

T2 sequence (P27694 whole entry, chain 1 of 3): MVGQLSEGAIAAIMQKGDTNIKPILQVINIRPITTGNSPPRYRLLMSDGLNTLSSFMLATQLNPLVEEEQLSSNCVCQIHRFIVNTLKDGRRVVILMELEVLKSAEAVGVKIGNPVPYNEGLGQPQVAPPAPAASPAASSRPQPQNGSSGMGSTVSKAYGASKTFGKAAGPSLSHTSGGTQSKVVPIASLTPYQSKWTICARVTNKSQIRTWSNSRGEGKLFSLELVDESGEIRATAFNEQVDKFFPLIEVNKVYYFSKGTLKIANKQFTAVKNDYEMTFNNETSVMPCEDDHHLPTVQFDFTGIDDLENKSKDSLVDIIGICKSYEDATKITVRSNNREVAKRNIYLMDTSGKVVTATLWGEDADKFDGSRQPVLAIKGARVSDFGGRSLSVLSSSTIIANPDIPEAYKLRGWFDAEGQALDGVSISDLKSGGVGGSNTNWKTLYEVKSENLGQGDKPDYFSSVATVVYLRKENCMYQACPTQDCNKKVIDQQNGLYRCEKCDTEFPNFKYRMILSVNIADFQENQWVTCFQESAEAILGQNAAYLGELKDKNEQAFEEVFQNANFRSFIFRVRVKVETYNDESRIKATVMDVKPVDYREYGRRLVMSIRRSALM
T2 sequence (P15927 whole entry, chain 2 of 3): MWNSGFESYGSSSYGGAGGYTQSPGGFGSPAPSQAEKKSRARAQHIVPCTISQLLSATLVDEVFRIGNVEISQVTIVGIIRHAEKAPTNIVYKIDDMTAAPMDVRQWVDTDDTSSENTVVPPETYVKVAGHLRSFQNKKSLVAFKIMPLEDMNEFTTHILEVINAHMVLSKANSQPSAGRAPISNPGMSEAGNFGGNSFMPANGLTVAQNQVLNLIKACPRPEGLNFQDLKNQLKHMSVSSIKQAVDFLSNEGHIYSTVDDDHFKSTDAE
T2 sequence (P35244 whole entry, chain 3 of 3): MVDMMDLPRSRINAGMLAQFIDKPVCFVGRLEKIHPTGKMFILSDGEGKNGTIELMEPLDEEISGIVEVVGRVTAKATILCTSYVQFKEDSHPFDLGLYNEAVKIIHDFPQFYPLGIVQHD
T1 sequence (P27694 whole entry S384D, chain 1 of 3): as the sequence (P27694 whole entry, chain 1 of 3) above, with S384D counted along it
T1 sequence (P15927 whole entry, chain 2 of 3): as the sequence (P15927 whole entry, chain 2 of 3) above
T1 sequence (P35244 whole entry, chain 3 of 3): as the sequence (P35244 whole entry, chain 3 of 3) above

Row | Binder | binding result [5] | binding result [6] | further results
1 | B1 | – | – | binding result [1]: binds; Kd [2]: 750 ± 400 pM
2 | B2 | – | – | binding result [3]: binds; binding result [4]: binds
3 | B3 | binds | binds | –
4 | B4 | binds | binds | –
